The values below come from publication PMC5867032, “Interactions of WRKY15 and WRKY33 transcription factors and their roles in the resistance of oilseed rape to Sclerotinia infection”.

B1: 3x first W-box (W1) (dsDNA)
DNA 1: TCAAAGTCAAGGACTCAAAGTCAAGGACTCAAAGTCAAGGAC
DNA 2: GTCCTTGACTTTGAGTCCTTGACTTTGAGTCCTTGACTTTGA
B2: 3x second W-box (W2) (dsDNA)
DNA 1: TGGTCTGACCATCTTGGTCTGACCATCTTGGTCTGACCATCT
DNA 2: AGATGGTCAGACCAAGATGGTCAGACCAAGATGGTCAGACCA
B3: 3x third W-box (W3) (dsDNA)
DNA 1: CAACGGTCAAACTTCAACGGTCAAACTTCAACGGTCAAACTT
DNA 2: AAGTTTGACCGTTGAAGTTTGACCGTTGAAGTTTGACCGTTG
B4: Mt probe (three W-boxes mutated) (dsDNA)
DNA 1: TCAACCCGGGGGACACATGGTCCCGGGATCTCCTCTCCTCCTCTTCTTCTCCATCTTCTAATTTTTTCAACCCCGGGACTT
DNA 2: AAGTCCCGGGGTTGAAAAAATTAGAAGATGGAGAAGAAGAGGAGGAGAGGAGATCCCGGGACCATGTGTCCCCCGGGTTGA
B5: W1m1 probe (dsDNA)
DNA 1: TCAAAGTCTAGGACACATGGTCTGACCATCTCCTCTCCTCCTCTTCTTCTCCATCTTCTAATTTTTTCAACGGTCAAACTT
DNA 2: AAGTTTGACCGTTGAAAAAATTAGAAGATGGAGAAGAAGAGGAGGAGAGGAGATGGTCAGACCATGTGTCCTAGACTTTGA
B6: W1m4 probe (dsDNA)
DNA 1: TCAAAATCAAGGACACATGGTCTGACCATCTCCTCTCCTCCTCTTCTTCTCCATCTTCTAATTTTTTCAACGGTCAAACTT
DNA 2: AAGTTTGACCGTTGAAAAAATTAGAAGATGGAGAAGAAGAGGAGGAGAGGAGATGGTCAGACCATGTGTCCTTGATTTTGA
B7: W1m5 probe (dsDNA)
DNA 1: TCAACCCGGGGGACACATGGTCTGACCATCTCCTCTCCTCCTCTTCTTCTCCATCTTCTAATTTTTTCAACGGTCAAACTT
DNA 2: AAGTTTGACCGTTGAAAAAATTAGAAGATGGAGAAGAAGAGGAGGAGAGGAGATGGTCAGACCATGTGTCCCCCGGGTTGA
B8: W1m2 probe (dsDNA)
DNA 1: TCAAAGTGAAGGACACATGGTCTGACCATCTCCTCTCCTCCTCTTCTTCTCCATCTTCTAATTTTTTCAACGGTCAAACTT
DNA 2: AAGTTTGACCGTTGAAAAAATTAGAAGATGGAGAAGAAGAGGAGGAGAGGAGATGGTCAGACCATGTGTCCTTCACTTTGA
B9: W1m3 probe (dsDNA)
DNA 1: TCAAAGGCAAGGACACATGGTCTGACCATCTCCTCTCCTCCTCTTCTTCTCCATCTTCTAATTTTTTCAACGGTCAAACTT
DNA 2: AAGTTTGACCGTTGAAAAAATTAGAAGATGGAGAAGAAGAGGAGGAGAGGAGATGGTCAGACCATGTGTCCTTGCCTTTGA
B10: W-box probe (Fig 12b) (dsDNA)
DNA 1: TCAAAGTCAAGGACACATGGTCTGACCATCTCCTCTCCTCCTCTTCTTCTCCATCTTCTAATTTTTTCAACGGTCAAACTT
DNA 2: AAGTTTGACCGTTGAAAAAATTAGAAGATGGAGAAGAAGAGGAGGAGAGGAGATGGTCAGACCATGTGTCCTTGACTTTGA
B11: 33probe (WT) (dsDNA)
DNA 1: TCAAAGTCAAGGACACATGGTCTGACCATCTCCTCTCCTCCTCTTCTTCTCCATCTTCTAATTTTTTCAACGGTCAAACTT
DNA 2: AAGTTTGACCGTTGAAAAAATTAGAAGATGGAGAAGAAGAGGAGGAGAGGAGATGGTCAGACCATGTGTCCTTGACTTTGA
B12: GCC-box (dsDNA)
DNA 1: CATAAGAGCCGCCACT
DNA 2: AGTGGCGGCTCTTATG

T1 sequence (A0A291B474 entry or part of it): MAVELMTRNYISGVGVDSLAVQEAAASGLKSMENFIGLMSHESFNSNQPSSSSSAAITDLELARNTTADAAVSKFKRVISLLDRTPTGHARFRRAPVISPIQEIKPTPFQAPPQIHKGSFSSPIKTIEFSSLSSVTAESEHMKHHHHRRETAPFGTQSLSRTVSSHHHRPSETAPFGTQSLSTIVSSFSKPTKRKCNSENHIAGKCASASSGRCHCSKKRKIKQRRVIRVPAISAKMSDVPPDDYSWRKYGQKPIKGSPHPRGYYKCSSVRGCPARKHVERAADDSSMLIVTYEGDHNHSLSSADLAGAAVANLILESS

One data set addresses T1, BnWRKY15 (Brassica napus, UniProt A0A291B474 1-319). Kind of data set: EMSA; Beyotime EMSA binding buffer (composition, pH not stated), 40 nM Cy5 DNA probe, room temperature; 6% native PAGE in ice water bath. As to conditions: protein: recombinant; tags: 6xHis (pET-32a fusion); label: Cy5.
For the molecule B1, the binding result is “binds”.

With B2, the binding result was “binds”.

On to B3, for which the binding result is recorded as “binds”.

With B4, the binding result is given as “no binding”.

For the molecule B5, the binding result is recorded as “binds”.

B6: the binding result is given as “binds”.

For the molecule B7, the binding result is “binds”.

With B8, the binding result is reported as “binds”.

As for B9, the binding result is “binds”.

A further data set deals with T1, BnWRKY15. Kind of data set: EMSA; alone; also outcompetes equal BnWRKY33; Beyotime EMSA binding buffer (composition, pH not stated), 40 nM Cy5 DNA probe, room temperature; 6% native PAGE in ice water bath. As to conditions: protein: recombinant; tags: 6xHis (pET-32a fusion); label: Cy5. In general terms: Mobility shift assays separate free from complexed probe on a gel.
As for B10, the binding result is recorded as “binds”.

The next data set concerns the target T1, BnWRKY15. The data set is described as follows: EMSA; competed by unlabelled 33probe (12.5x, 25x); Beyotime EMSA binding buffer (composition, pH not stated), 40 nM Cy5 DNA probe, room temperature; 6% native PAGE in ice water bath. Particulars: protein: recombinant; tags: 6xHis (pET-32a fusion); label: Cy5.
On to B11, for which the binding result is “binds”.

A further data set addresses T1, BnWRKY15. The data set is described as follows: competition; unlabelled competitor against Cy5-33probe; Beyotime EMSA binding buffer (composition, pH not stated), 40 nM Cy5 DNA probe, room temperature; 6% native PAGE in ice water bath. Particulars: protein: recombinant; tags: 6xHis (pET-32a fusion); label: unlabelled.
In the case of B12, the binding result is reported as “no binding”.
